The values below come from article doi:10.1101/419721 (bioRxiv, 2018).

No end group written: not given here.

Experiment [1] concerns the target T1, PDZ domain of ARHGEF12 (MBP-PDZ) (human, UniProt Q9NZN5 72-151).
T1 sequence: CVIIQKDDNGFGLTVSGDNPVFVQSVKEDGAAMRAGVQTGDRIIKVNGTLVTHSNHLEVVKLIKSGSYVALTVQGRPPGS
Put plainly: ITC. (In ITC the heat of successive injections is recorded.)

Experiment [2] has as its target T2, PDZ domain of SYNJ2BP (MBP-PDZ) (human, UniProt P57105 13-100).
T2 sequence: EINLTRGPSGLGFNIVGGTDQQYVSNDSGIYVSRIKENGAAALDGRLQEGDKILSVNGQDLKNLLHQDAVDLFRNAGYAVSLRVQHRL
Briefly: ITC.

B1: unphosphorylated RSK1 683-735 peptide (peptide)
peptide: QSQLSHQDLQLVKGAMAATYSALNSSKPTPQLKPIESSILAQRRVRKLPSTTL
For the molecule B1, the binding result in experiment [1] and in experiment [2] was “binds” in each case.

B2: phosphorylated RSK1 683-735 peptide (peptide)
peptide: QSQLSHQDLQLVKGAMAATYSALNSSKPTPQLKPIESSILAQRRVRKLPSTTL
modifications: also: phosphorylated, sites not given here
Take B2: in experiment [2], the binding result is “binds”.
